According to article PMC5374420, “In Search of Small Molecule Inhibitors Targeting the Flexible CK2 Subunit Interface” (Pharmaceuticals, 2017):

Molecular target: T1, CK2α of MCF-10A cells (human (endogenous in MCF-10A), UniProt P68400 1-391)
T1 construct: protein kinase CK2 catalytic subunit alpha, endogenous; also called free CK2α subunit; source: endogenous, MCF-10A cells and cell extracts (WT or CK2β-depleted)
Experiment: thermal shift assay in cell lysates; CK2β-depleted MCF-10A cell lysates (50 mM Tris-HCl pH 7.5, 150 mM NaCl, 2% glycerol) with 50 µM TAT or TAT-Pc 13, or PBS or CK2β, 30 min at room temperature; aliquots heated 3 min; CK2 activity of the supernatants
Details: one partner purified

T1 sequence (P68400 whole entry): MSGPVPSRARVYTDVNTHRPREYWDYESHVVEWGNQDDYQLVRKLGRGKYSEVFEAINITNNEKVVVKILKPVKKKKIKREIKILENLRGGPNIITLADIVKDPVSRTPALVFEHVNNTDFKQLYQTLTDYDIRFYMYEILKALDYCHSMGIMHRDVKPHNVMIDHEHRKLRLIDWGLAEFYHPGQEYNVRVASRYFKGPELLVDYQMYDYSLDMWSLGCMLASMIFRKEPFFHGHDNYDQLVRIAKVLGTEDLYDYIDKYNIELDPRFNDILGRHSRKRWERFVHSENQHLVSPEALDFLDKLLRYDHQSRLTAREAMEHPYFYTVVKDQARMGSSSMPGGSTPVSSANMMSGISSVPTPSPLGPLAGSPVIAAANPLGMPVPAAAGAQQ

B1: recombinant CK2β (natural protein)
chain: not shown
notes: protein kinase CK2 regulatory subunit beta; also called protein kinase CK2 regulatory β subunit
  shift of the melting curve: 3 °C
